Sequences and labels used below:
T1: FcγRIIb extracellular domain with C-terminal His tag (human, UniProt P31994 43-217)
T1 construct: extracellular domain; Expressed in FreeStyle293 cells and used as the analyte in Biacore; also called FcgRIIb; 2b; not shown: His tag attached to the C terminus
T1 sequence (looked up): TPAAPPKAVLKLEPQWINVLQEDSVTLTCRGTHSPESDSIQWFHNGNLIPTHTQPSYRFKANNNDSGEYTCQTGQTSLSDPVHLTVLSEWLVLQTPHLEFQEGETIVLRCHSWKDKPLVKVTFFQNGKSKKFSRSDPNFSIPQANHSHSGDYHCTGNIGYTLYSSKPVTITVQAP

T2: FcγRIIb extracellular domain with C-terminal His tag (human, UniProt P31994 43-217)
T2 construct: extracellular domain; Soluble receptor expressed in FreeStyle293 cells, used as analyte in Biacore; also called FcgRIIb; 2b; not shown: His tag attached to the C terminus
T2 sequence (looked up): T1 sequence (looked up)

B1: GpH7-A5/GpH7-B3 variant I336_13S/GpL16-k0 (heterodimerized antibody, He Ab) (antibody, human IgG1, kappa)
heavy 1: not shown
heavy 2: not shown
light: DIVMTQSPLSLPVTPGEPASISCQASESLVHSNRNTYLHWYLQKPGQSPQLLIYKVSNRFSGVPDRFSGSGSGTDFTLKISRVEAEDVGVYYCSQNTHVPPTFGQGTKVEIERTVAAPSVFIFPPSDEQLKSGTASVVCLLNNFYPREAKVQWKVDNALQSGNSQESVTEQDSKDSTYSLSSTLTLSKADYEKHKVYACEVTHQGLSSPVTKSFNRGEC
notes: Anti-glypican-3 IgG1 heterodimerized antibody; the alteration stands only in the GpH7-B3 chain; Positions in EU numbering; also called I336S
B2: GpH7-A5/GpH7-B3 variant S267_10E/GpL16-k0 (He Ab) (antibody, human IgG1, kappa)
heavy 1: not shown
heavy 2: not shown
light: B1 light
notes: Anti-glypican-3 heterodimerized IgG1 antibody; the mutation stands in only one H chain (the GpH7-B3 chain); also called S267E in one H chain
B3: GpH7-A5/GpH7-B3 variant H268_01G/GpL16-k0 (He Ab) (antibody, human IgG1, kappa)
heavy 1: not shown
heavy 2: not shown
light: B1 light
notes: Anti-glypican-3 heterodimerized IgG1 antibody; the mutation stands in only one H chain (the GpH7-B3 chain); also called H268G in one H chain
B4: GpH7-A5/GpH7-B3 variant H268_20W/GpL16-k0 (He Ab) (antibody, human IgG1, kappa)
heavy 1: not shown
heavy 2: not shown
light: B1 light
notes: Anti-glypican-3 heterodimerized IgG1 antibody; the mutation stands in only one H chain (the GpH7-B3 chain); also called H268W in one H chain
B5: GpH7-A5/GpH7-B3 variant S267_20W/GpL16-k0 (He Ab) (antibody, human IgG1, kappa)
heavy 1: not shown
heavy 2: not shown
light: B1 light
notes: Anti-glypican-3 heterodimerized IgG1 antibody; the mutation stands in only one H chain (the GpH7-B3 chain); also called S267W in one H chain
B6: GpH7-A5/GpH7-B3 variant S267_14T/GpL16-k0 (He Ab) (antibody, human IgG1, kappa)
heavy 1: not shown
heavy 2: not shown
light: B1 light
notes: Anti-glypican-3 heterodimerized IgG1 antibody; the mutation stands in only one H chain (the GpH7-B3 chain); also called S267T in one H chain
B7: GpH7-A5/GpH7-B3 variant P271_01G/GpL16-k0 (He Ab) (antibody, human IgG1, kappa)
heavy 1: not shown
heavy 2: not shown
light: B1 light
notes: Anti-glypican-3 heterodimerized IgG1 antibody; the mutation stands in only one H chain (the GpH7-B3 chain); also called P271G in one H chain
B8: GpH7-A5/GpH7-B3 variant S267_19Q/GpL16-k0 (He Ab) (antibody, human IgG1, kappa)
heavy 1: not shown
heavy 2: not shown
light: B1 light
notes: Anti-glypican-3 heterodimerized IgG1 antibody; the mutation stands in only one H chain (the GpH7-B3 chain); also called S267Q in one H chain
B9: GpH7-A5/GpH7-B3 variant H268_13S/GpL16-k0 (He Ab) (antibody, human IgG1, kappa)
heavy 1: not shown
heavy 2: not shown
light: B1 light
notes: Anti-glypican-3 heterodimerized IgG1 antibody; the mutation stands in only one H chain (the GpH7-B3 chain); also called H268S in one H chain
B10: GpH7-A5/GpH7-B3 variant H268_05P/GpL16-k0 (He Ab) (antibody, human IgG1, kappa)
heavy 1: not shown
heavy 2: not shown
light: B1 light
notes: Anti-glypican-3 heterodimerized IgG1 antibody; the mutation stands in only one H chain (the GpH7-B3 chain); also called H268P in one H chain
B11: GpH7-A5/GpH7-B3 variant P271_08L/GpL16-k0 (He Ab) (antibody, human IgG1, kappa)
heavy 1: not shown
heavy 2: not shown
light: B1 light
notes: Anti-glypican-3 heterodimerized IgG1 antibody; the mutation stands in only one H chain (the GpH7-B3 chain); also called P271L in one H chain
B12: GpH7-A5/GpH7-B3 variant S267_16H/GpL16-k0 (He Ab) (antibody, human IgG1, kappa)
heavy 1: not shown
heavy 2: not shown
light: B1 light
notes: Anti-glypican-3 heterodimerized IgG1 antibody; the mutation stands in only one H chain (the GpH7-B3 chain); also called S267H in one H chain
B13: GpH7-A5/GpH7-B3 variant H268_02A/GpL16-k0 (He Ab) (antibody, human IgG1, kappa)
heavy 1: not shown
heavy 2: not shown
light: B1 light
notes: Anti-glypican-3 heterodimerized IgG1 antibody; the mutation stands in only one H chain (the GpH7-B3 chain); also called H268A in one H chain
B14: GpH7-A5/GpH7-B3 variant H268_18N/GpL16-k0 (He Ab) (antibody, human IgG1, kappa)
heavy 1: not shown
heavy 2: not shown
light: B1 light
notes: Anti-glypican-3 heterodimerized IgG1 antibody; the mutation stands in only one H chain (the GpH7-B3 chain); also called H268N in one H chain
B15: GpH7-A5/GpH7-B3 variant S267_15Y/GpL16-k0 (He Ab) (antibody, human IgG1, kappa)
heavy 1: not shown
heavy 2: not shown
light: B1 light
notes: Anti-glypican-3 heterodimerized IgG1 antibody; the mutation stands in only one H chain (the GpH7-B3 chain); also called S267Y in one H chain

The target in the first assay is T3, FcγRIIIa extracellular domain with C-terminal His tag (human, UniProt P08637 17-208).
T3 construct: extracellular domain; Soluble receptor expressed in FreeStyle293 cells, used as analyte in Biacore; also called FcgRIIIa; 3a; not shown: His tag attached to the C terminus
As to the kind of experiment: SPR (Biacore); ratio of He/Con_3a (FcγRIIIa) to He/Con_2b (FcγRIIb). In short, it runs like this:
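Binding responses come from Biacore SPR with FcγR as analyte over antibody captured on an antigen-peptide surface. Conditions: HBS-EP+ buffer, 25 °C.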
Background: SPR reads the build-up and loss of mass on a sensor chip optically.
T3 sequence (P08637 17-208): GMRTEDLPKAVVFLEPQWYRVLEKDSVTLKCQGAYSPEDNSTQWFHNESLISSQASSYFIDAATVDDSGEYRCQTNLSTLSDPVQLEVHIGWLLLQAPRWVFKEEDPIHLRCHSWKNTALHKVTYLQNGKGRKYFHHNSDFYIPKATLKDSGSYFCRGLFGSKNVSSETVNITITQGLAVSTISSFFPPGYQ
With B1, the “IIIa/IIb (He_3a/2b)” value is 1.21 ratio.

The next assay deals with T4, FcγRIIIa extracellular domain with C-terminal His tag (human, UniProt P08637 17-208).
T4 construct: extracellular domain; also called FcgRIIIa; 3a; not shown: His tag attached to the C terminus
In words: SPR (Biacore); relative FcγRIIIa binding divided by relative FcγRIIb binding of the same antibody. How it is done: (§1) Analysis of interaction between objective antibody and the FcγR was carried out using Biacore T100 (GE Healthcare). HBS-EP+ (GE Healthcare) was used as the running buffer, and the measurement temperature was set to 25° C. Chips produced by immobilizing the antigen peptide by the amine coupling method to a Series S Sencor Chip CM5 (GE Healthcare), or alternatively, chips produced by allowing preliminarily biotinylated antigen peptides to interact with and immobilize onto a Series S Sensor Chip SA (certified) (GE Healthcare) were used. Antibodies of interest were captured onto an antigen peptide-immobilized chip, and allowed to interact to each FcγR diluted with running buffer. To regenerate and repeatedly use the chip, the antibodies captured on the chip were washed off by reacting 10 mM glycine-HCl, pH 1.5.
(§2) The FcγR-binding activity of each antibody was assessed primarily using as an indicator the FcγR-binding activity and dissociation constant for FcγR.
T4 sequence (P08637 17-208): as above
Consider B2, for which the “He_3a/2b (IIIa/IIb)” value is 0.24 ratio of He/Con_3a to He/Con_2b.
Same read-out and setting: then B3, with 0.67 ratio of He/Con_3a to He/Con_2b.
For the molecule B4, the “He_3a/2b (IIIa/IIb)” value is 0.74 ratio of He/Con_3a to He/Con_2b.
Same read-out and setting: with B5 the figure was 0.37 ratio of He/Con_3a to He/Con_2b; with B6, 0.44 ratio of He/Con_3a to He/Con_2b; with B7, 0.59 ratio of He/Con_3a to He/Con_2b.
Still for that read-out and setting: with B8 the figure was 0.3 ratio of He/Con_3a to He/Con_2b; with B9, 0.76 ratio of He/Con_3a to He/Con_2b.
Same read-out and setting: with B10 the figure was 0.66 ratio of He/Con_3a to He/Con_2b; with B11, 0.69 ratio of He/Con_3a to He/Con_2b.
With B12, the “He_3a/2b (IIIa/IIb)” value was 0.27 ratio of He/Con_3a to He/Con_2b.
Turning to B13, the “He_3a/2b (IIIa/IIb)” value is 0.73 ratio of He/Con_3a to He/Con_2b.
The same measure, in the same setting: with B14 the figure was 0.67 ratio of He/Con_3a to He/Con_2b.
Turning to B15, the “He_3a/2b (IIIa/IIb)” value was 0.31 ratio of He/Con_3a to He/Con_2b.

A further assay has as its target T1, FcγRIIb extracellular domain with …. In words: SPR (Biacore), antibody captured on antigen peptide chip, FcγR as analyte; bound amount against control heterodimerized antibody. How it is done: as §1, §2
As to B2, the “He/Con_2b (IIb binding)” value is 379 relative binding activity, GpH7-A5/GpH7-B3/GpL16-k0 = 100.
Same read-out and setting: with B3 the figure was 144 relative binding activity, GpH7-A5/GpH7-B3/GpL16-k0 = 100; with B4, 111 relative binding activity, GpH7-A5/GpH7-B3/GpL16-k0 = 100; with B5, 57.2 relative binding activity, GpH7-A5/GpH7-B3/GpL16-k0 = 100.
Still for that read-out and setting: then B6, with 104 relative binding activity, GpH7-A5/GpH7-B3/GpL16-k0 = 100.
On to B7, for which the “He/Con_2b (IIb binding)” value was 193 relative binding activity, GpH7-A5/GpH7-B3/GpL16-k0 = 100.
Same read-out and setting: then B8, with 218 relative binding activity, GpH7-A5/GpH7-B3/GpL16-k0 = 100; and B9, with 160 relative binding activity, GpH7-A5/GpH7-B3/GpL16-k0 = 100; and B10, with 116 relative binding activity, GpH7-A5/GpH7-B3/GpL16-k0 = 100.
Still for that read-out and setting: then B11, with 103 relative binding activity, GpH7-A5/GpH7-B3/GpL16-k0 = 100; and B12, with 65.9 relative binding activity, GpH7-A5/GpH7-B3/GpL16-k0 = 100; and B13, with 167 relative binding activity, GpH7-A5/GpH7-B3/GpL16-k0 = 100.
On the same count and under the same terms, with B14 the figure was 156 relative binding activity, GpH7-A5/GpH7-B3/GpL16-k0 = 100; with B15, 37.9 relative binding activity, GpH7-A5/GpH7-B3/GpL16-k0 = 100.

A further assay has as its target T4, FcγRIIIa extracellular domain with …. The description is as above. How it is done: as §1, §2
Turning to B2, the “He/Con_3a (IIIa binding)” value was 91.9 relative binding activity, GpH7-A5/GpH7-B3/GpL16-k0 = 100.
The same measure, in the same setting: then B3, with 96.7 relative binding activity, GpH7-A5/GpH7-B3/GpL16-k0 = 100.
Still for that read-out and setting: then B4, with 82.8 relative binding activity, GpH7-A5/GpH7-B3/GpL16-k0 = 100; and B5, with 21.5 relative binding activity, GpH7-A5/GpH7-B3/GpL16-k0 = 100.
On the same count and under the same terms, then B6, with 45.6 relative binding activity, GpH7-A5/GpH7-B3/GpL16-k0 = 100.
Take B7: the “He/Con_3a (IIIa binding)” value was 113 relative binding activity, GpH7-A5/GpH7-B3/GpL16-k0 = 100.
Turning to B8, the “He/Con_3a (IIIa binding)” value was 65 relative binding activity, GpH7-A5/GpH7-B3/GpL16-k0 = 100.
B9: the “He/Con_3a (IIIa binding)” value was 122 relative binding activity, GpH7-A5/GpH7-B3/GpL16-k0 = 100.
Consider B10, for which the “He/Con_3a (IIIa binding)” value is 76.4 relative binding activity, GpH7-A5/GpH7-B3/GpL16-k0 = 100.
On the same count and under the same terms, then B11, with 71 relative binding activity, GpH7-A5/GpH7-B3/GpL16-k0 = 100; and B12, with 17.9 relative binding activity, GpH7-A5/GpH7-B3/GpL16-k0 = 100.
Same read-out and setting: then B13, with 122 relative binding activity, GpH7-A5/GpH7-B3/GpL16-k0 = 100; and B14, with 104 relative binding activity, GpH7-A5/GpH7-B3/GpL16-k0 = 100; and B15, with 11.8 relative binding activity, GpH7-A5/GpH7-B3/GpL16-k0 = 100.

A further assay addresses T2, FcγRIIb extracellular domain with …. As to the kind of experiment: SPR (Biacore), antibody captured via antigen peptide, FcγR as analyte; binding amount relative to control heterodimerized antibody. As for the experimental part:
(§3) The heterodimerized antibodies He Abs in which one of the H chains was introduced with an alteration were assayed for their binding activities to each activating FcγR and inhibitory FcγR according to the method described in Example 4. […] The activating FcγRs in FIGS. 26, 27, 28, and 29 are FcγRIa, FcγRIIa (R), FcγRIIa (H), and FcγRIIIa, respectively.
as §1
As for B1, the “He/Con_2b (IIb binding)” value was 83.7 relative binding, GpH7-A5/GpH7-B3/GpL16-k0 = 100.

For the next assay, the target named is T3, FcγRIIIa extracellular domain with …. The assay is described as above. How it is done:
as §3, §1
For B1, the “He/Con_3a (IIIa binding)” value was 102 relative binding, GpH7-A5/GpH7-B3/GpL16-k0 = 100.

Source of the values: patent US20180155451A1 (published 2018).
